According to publication PMC9811684 (2023):

What was measured:
Test in all cases: multimer staining
[1] = biological target: T1, SARS-CoV-1 spike protein peptide on HLA-A*24:02 (human)
T1 peptide: QYIKWPWYVW

[2] = biological target: T2, SARS-CoV-2 spike protein (SPIKE) peptide on HLA-A*23:01 (human)
T2 peptide: QYIKWPWYIW

[3] = biological target: T3, NL63 spike protein peptide on HLA-A*24:02 (human)
T3 peptide: NYIKWPWWVW

[4] = biological target: T4, HKU1 spike protein peptide on HLA-A*24:02 (human)
T4 peptide: MYVKWPWYVW

[5] = biological target: T5, 229E spike protein peptide on HLA-A*24:02 (human)
T5 peptide: TYIKWPWWVW

[6] = biological target: T6, OC43 spike protein peptide on HLA-A*24:02 (human)
T6 peptide: YYVKWPWYVW

[7] = biological target: T7, SARS-CoV-2 spike protein (SPIKE) peptide on HLA-A*24:02 (human)
T7 peptide: QYIKWPWYIW

Measured: binding result

B1: TCRQYI (TCR)
alpha TRAV20*01 TRAJ32*01 CDR3: CAALNYGGATNKLIF
beta TRBV4-3*01 TRBJ2-7*01 CDR3: CASSPSGGAYEQYF
recognises: all assays above
